Data: paper PMC8900818, “The suppressor of copper sensitivity protein C from Caulobacter crescentus is a trimeric disulfide isomerase that binds copper(I) with subpicomolar affinity” (Acta Crystallographica. Section D, Structural Biology, 2022)

Legend:
[1] = target: Caulobacter crescentus suppressor of copper sensitivity protein C, C2S variant (Caulobacter crescentus); test: mass photometry; reduced proteins diluted to ~150 nM and added in 2 µl steps to 10 µl buffer (25 mM HEPES pH 7.5, 150 mM NaCl); Refeyn One; mass of the main peak against the monomer's mass
[2] = target: Caulobacter crescentus suppressor of copper sensitivity protein C, C2S variant (Caulobacter crescentus); test: crystal structure; reduced CcScsC C2S at 130 mg/ml, 37-39% MPD, 0.02 M CaCl2, 0.2 M sodium acetate pH 7.25, 4°C; space group P63, one protomer per asymmetric unit, trimer by crystallographic symmetry
[3] = target: Proteus mirabilis ScsC (Proteus mirabilis); test: mass photometry; reduced proteins diluted to ~150 nM and added in 2 µl steps to 10 µl buffer (25 mM HEPES pH 7.5, 150 mM NaCl); Refeyn One; mass of the main peak against the monomer's mass
[4] = target: Caulobacter crescentus suppressor of copper sensitivity protein C, wild type (Caulobacter crescentus); test: SEC-SAXS; inline SEC-SAXS (S200 5/150 GL) with sheath flow, 283 K, injection 5.6 mg/ml; molecular mass from the Porod volume
[5] = target: Caulobacter crescentus suppressor of copper sensitivity protein C, wild type (Caulobacter crescentus); test: mass photometry; reduced proteins diluted to ~150 nM and added in 2 µl steps to 10 µl buffer (25 mM HEPES pH 7.5, 150 mM NaCl); Refeyn One; mass of the main peak against the monomer's mass
[6] = target: the molecule itself; test: as above

Molecule: Caulobacter crescentus suppressor of copper sensitivity protein C, C2S variant (enzyme)
- stoichiometry N [1]: 3
- stoichiometry N [2]: 3

Molecule: Proteus mirabilis ScsC (enzyme)
- stoichiometry N [3]: 3

Molecule: Caulobacter crescentus suppressor of copper sensitivity protein C, wild type (enzyme)
- stoichiometry N [4]: 3
- stoichiometry N [5]: 3

B1: Escherichia coli DsbC (enzyme, UniProt P0AEG6 21-236, looked up)
chain: DDAAIQQTLAKMGIKSSDIQPAPVAGMKTVLTNSGVLYITDDGKHIIQGPMYDVSGTAPVNVTNKMLLKQLNALEKEMIVYKAPQEKHVITVFTDITCGYCHKLHEQMADYNALGITVRYLAFPRQGLDSDAEKEMKAIWCAKDKNKAFDDVMAGKSVAPASCDVDIADHYALGVQLGVSGTPAVVLSNGTLVPGYQPPKEMKEFLDEHQKMTSGK
notes: E. coli DsbC, UniProt P0AEG6; monomer printed as 24.1 kDa; Control protein of the mass photometry; Probably the mature protein without signal peptide; also called EcDsbC
- stoichiometry N [6]: 2
